Source: paper PMC5841405 (Nature Communications, 2018)

How the values were obtained:
[1] = biological target: the molecule itself; test: SEC-MALS; Superose 6 10/300 GL, 20 mM Tris pH 7.5, 100 mM NaCl, 1 mM DTT
[2] = biological target: the molecule itself; test: ITC; titration of the protein into buffer (dilution); dimer to monomers; 20 mM HEPES pH 7.5, 100 mM NaCl, 0.25 mM TCEP

Protein	stoichiometry N [1]	Kd [2]
BICD2_(1–98) (domain or fragment, human, UniProt Q8TD16-1 1-98, looked up, human BICD2, UniProt Q8TD16-1, residues 1-98 (includes the CC1-Box); Purified 'as described above' (pMAL-c2x); source: E. coli BL21 (DE3), purified (amylose column, TEV cleavage, gel filtration)) MSAPSEEEEYARLVMEAQPEWLRAEVKRLSHELAETTREKIQAAEYGLAVLEEKHQLKLQFEELEVDYEAIRSEMEQLKEAFGQAHTNHKKVAADGES	2	
Spindly_(1–142) (domain or fragment, human, UniProt Q96EA4-1 1-142, looked up, human Spindly, UniProt Q96EA4-1, residues 1-142 (includes the CC1-Box); Cloned in pCold1; source: E. coli BL21 (DE3), purified (Ni-NTA, TEV cleavage, Superdex 75)) MEADIITNLRCRLKEAEEERLKAAQYGLQLVESQNELQNQLDKCRNEMMTMTESYEQEKYTLQREVELKSRMLESLSCECEAIKQQQKMHLEKLEEQLSRSHGQEVNELKTKIEKLKVELDEARLSEKQLKHQVDHQKELLS	2	
Hook1_(11–443) (domain or fragment, human, UniProt Q9UJC3-1 11-443, looked up, human Hook1, UniProt Q9UJC3-1, residues 11-443 (extends to the end of CC2); Dimeric by SEC-MALS; source: E. coli BL21 (DE3), purified (amylose column, TEV cleavage, gel filtration)) KLPLCDSLMIWLQTFNTASPCQDVKQLTSGVAMAQVLHQIDAAWFNESWLSRIKEDVGDNWRIKASNVKKVLQGIMSYYHEFLGQQISEALIPDLNQITECSDPVELGRLLQLILGCAINCEKKQEHIQNIMTLEESVQHVVMTAIQELMSKEILSSPPNDAVGELEQQLKRALEELQEALAEKEELRQRCEELDMQVTTLQDEKNSLVSENEMMNEKLDQLDGSFDDPNTVVAKKYFHAQLQLEQLQEENFRLEAAKDDYRVHCEELEKQLIEFQHRNDELTSLAEETRALKDEIDVLRATSDKANKLESTVEIYRQKLQDLNDLRKQVKTLQETNMMYMHNTVSLEEELKKANAARTQLETYKRQVQDLHVKLSSESKRADTLAFEMKRLEEKHEALLKEKERLIEQRDTLKETNEELRCSQVQQDHLNQT	2	
Hook1_(11–238) (domain or fragment, human, UniProt Q9UJC3-1 11-238, looked up, human Hook1, UniProt Q9UJC3-1, residues 11-238 (Hook domain and CC1 region); In equilibrium between dimers and monomers; source: E. coli BL21 (DE3), purified (amylose column, TEV cleavage, gel filtration)) KLPLCDSLMIWLQTFNTASPCQDVKQLTSGVAMAQVLHQIDAAWFNESWLSRIKEDVGDNWRIKASNVKKVLQGIMSYYHEFLGQQISEALIPDLNQITECSDPVELGRLLQLILGCAINCEKKQEHIQNIMTLEESVQHVVMTAIQELMSKEILSSPPNDAVGELEQQLKRALEELQEALAEKEELRQRCEELDMQVTTLQDEKNSLVSENEMMNEKLDQLDGSFDD		2100 nM
